In patent publication US20090068110A1, “ANTIBODIES TO INSULIN-LIKE GROWTH FACTOR RECEPTOR” (Genentech, Inc., priority 2006, published 2009):
One block for each molecule: values may come before it.

Legend:
A549 tumors = test: A549 lung-cancer xenograft model; assay type: in vivo, athymic nude mice; details: h10H5.vX 5 mg/kg IP two times per week; vinorelbine 9 mg/kg weekly for first three weeks
Source text: (§1) Female nude (nu/nu) and C.B-17 SCID beige mice were obtained from Charles Rivers Laboratories, Inc. (Hollister, Calif.). Animals were about six to eight weeks old and weighed about 25 grams each. Mice were acclimated to study conditions for at least three days before tumor-cell inoculations. The animals were housed in standard rodent micro-isolator cages. Only animals that appeared to be healthy and that were free of obvious abnormalities were used for the study. Each mouse was given a subcutaneous injection of SK-N-AS cells (10 million), SW527 cells (5 million), Colo205 cells (5 million), or A549 cells (5 million) into the dorsal right flank in a volume of 0.2 mL. Data collected from each experimental group were expressed as mean tumor volume±the standard error of the mean (SEM). Tumors were monitored until they reached a mean volume of 130-260 mm3. […] Tumors were measured twice weekly throughout the experiment starting on the first day of treatment. Tumor volumes were measured in two dimensions (length and width) using ULTRA CAL-IV™ calipers (Model 54-10-111, Fred V. Fowler Company, Inc.; Newton, Mass.), and calculated using the formula of: […]
(§2) Tumor-inhibition and body-weight graphs were plotted using […]™ 3.6 software (Synergy Software; Reading, Pa.). […]

SW527 xenograft tumors = test: SW527 breast-cancer xenograft model; assay type: in vivo, SCID beige mice
Source text: as §1, §2
Tumor incidence was determined by the number of measurable tumors in each group. […]

[1] = molecular target: human IGF-1R-ECD (secreted recombinant extracellular domain, amino acids 1-902, tagged with 10 or 12 histidine residues at the carboxyl terminus) (human) (UniProt P08069); test: competition ELISA: antibody pre-incubated on plate-coated human IGF-1R-ECD, then biotinylated IGF-I (blocked ligand), streptavidin-HRP, A450
[2] = molecular target: human IGF-1R-ECD (secreted recombinant extracellular domain, amino acids 1-902, tagged with 10 or 12 histidine residues at the carboxyl terminus) (human) (UniProt P08069); test: solid-phase binding assay: serially diluted antibody on plate-coated human IGF-1R-ECD, then biotinylated IGF-I (blocked ligand), streptavidin-HRP, A450; n=3
[3] = molecular target: human IGF-1R-ECD (secreted recombinant extracellular domain, amino acids 1-902, tagged with 10 or 12 histidine residues at the carboxyl terminus) (human) (UniProt P08069); test: solid-phase binding assay: serially diluted antibody on plate-coated human IGF-1R-ECD, then biotinylated IGF-II (blocked ligand), streptavidin-HRP, A450; n=3
[4] = tested on: Colo205-e215 xenograft tumors; test: Colo205-e215 xenograft, combination with 5-FU; assay type: in vivo, athymic nude mice; details: h10H5.vX weekly IP; 5-FU 100 mg/kg weekly for first three weeks
Source text: as §1, §2

[5] = molecular target: T1, IGF-1R α- and β-subunit in SK-N-AS cells (Homo sapiens, UniProt P08069); test: h10H5-induced IGF-1R down-regulation with proteasome or lysosomal protease inhibitors; assay type: cell-based; details: one hour pretreatment; 30 μM bortezomib or 5 μM pepstatin A and 10 μg/ml leupeptin
T1 construct: h10H5-induced IGF-1R downregulation, SK-N-AS cells were pretreated; endogenous in cells; host or cells: SK-N-AS
Experimental: Both proteasome and lysosome pathways have been implicated in ligand-mediated IGF-1R degradation. To examine whether these pathways contribute to h10H5-induced IGF-1R downregulation, SK-N-AS cells were pretreated with either a combination of 5 μM of pepstatin A and 10 μg/ml of leupeptin or 30 μM of VELCADE® bortezomib for one hour, and subsequently exposed to h10H5 treatment for 1 to 8 hours in the presence of protease or protesome inhibitors. Cell lysates were analyzed for IGF-1R α-subunit and β-subunit by Western blotting. β-actin was used as a loading control. Because the extracellular (ECD) and intracellular (ICD) domains are exposed to different cellular environments during the internalization and trafficking processes, antibodies that specifically react to the α-subunit that is a major part of ECD or the C-terminus of the β-subunit, and therefore a part of ICD, were used for Western blot analysis.

[6] = CHF patients, enalapril in addition to conventional therapy; cited from earlier work
[7] = molecular target: human IGF-1R-ECD (secreted recombinant extracellular domain, amino acids 1-902, tagged with 10 or 12 histidine residues at the carboxyl terminus) (human) (UniProt P08069); test: BIACORE surface plasmon resonance: IGF-1R immobilized on CM5 chip (about 500 RU), IgG injected 250-0.78 nM, 25 C, 1:1 Langmuir model (apparent affinity)
cynomolgus-monkey IGF-1R = cynomolgus-monkey IGF-1R (cynomolgus monkey, UniProt G7P9I7 31-908); test: as above
[8] = molecular target: human IGF-1R-ECD (secreted recombinant extracellular domain, amino acids 1-902, tagged with 10 or 12 histidine residues at the carboxyl terminus) (human) (UniProt P08069); test: BIACORE surface plasmon resonance: IGF-1R immobilized on CM5 chip (about 500 RU), Fab injected 500-3.1 nM, 25 C, 1:1 Langmuir model
[9] = molecular target: murine IGF-1R-ECD (murine) (UniProt Q60751); test: as above

Sequence of cynomolgus-monkey IGF-1R (G7P9I7 entry or part of it): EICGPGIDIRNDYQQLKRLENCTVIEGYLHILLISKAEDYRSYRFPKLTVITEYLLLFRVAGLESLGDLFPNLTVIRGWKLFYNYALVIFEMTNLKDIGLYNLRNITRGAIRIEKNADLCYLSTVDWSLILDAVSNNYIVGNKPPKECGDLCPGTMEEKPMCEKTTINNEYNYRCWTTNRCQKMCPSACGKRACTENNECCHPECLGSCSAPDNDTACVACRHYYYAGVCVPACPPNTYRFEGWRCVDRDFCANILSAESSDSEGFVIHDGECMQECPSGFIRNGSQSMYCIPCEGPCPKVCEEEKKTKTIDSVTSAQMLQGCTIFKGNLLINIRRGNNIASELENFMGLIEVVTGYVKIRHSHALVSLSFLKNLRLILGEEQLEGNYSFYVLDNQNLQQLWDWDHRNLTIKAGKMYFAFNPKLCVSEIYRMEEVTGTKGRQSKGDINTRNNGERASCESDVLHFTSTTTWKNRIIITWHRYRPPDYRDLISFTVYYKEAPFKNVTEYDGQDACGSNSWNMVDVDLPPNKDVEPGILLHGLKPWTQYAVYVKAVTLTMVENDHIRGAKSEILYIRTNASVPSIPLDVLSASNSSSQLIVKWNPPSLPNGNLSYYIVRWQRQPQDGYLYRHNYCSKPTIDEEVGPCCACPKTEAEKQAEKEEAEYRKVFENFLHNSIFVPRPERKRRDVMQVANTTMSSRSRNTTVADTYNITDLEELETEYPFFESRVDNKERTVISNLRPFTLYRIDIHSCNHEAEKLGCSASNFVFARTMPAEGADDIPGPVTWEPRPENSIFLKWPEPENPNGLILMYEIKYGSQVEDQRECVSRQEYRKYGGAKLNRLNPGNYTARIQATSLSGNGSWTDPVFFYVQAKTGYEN

Molecule: CCC1=C[C@@H]2CN(C1)Cc1c([nH]c3ccccc13)[C@@](C(=O)OC)(c1cc3c(cc1OC)N(C)[C@H]1[C@@](O)(C(=O)OC)[C@H](OC(C)=O)[C@]4(CC)C=CCN5CC[C@]31[C@@H]54)C2 [vinorelbine]
inhibition of tumor growth (TGI) at day 21 (A549 tumors): 45%

Molecule: CC(=O)O[C@@]12CO[C@@H]1C[C@H](O)[C@@]1(C)C(=O)[C@H](O)C3=C(C)[C@@H](OC(=O)[C@H](O)[C@@H](NC(=O)OC(C)(C)C)c4ccccc4)C[C@@](O)([C@@H](OC(=O)c4ccccc4)[C@H]21)C3(C)C [docetaxel]
TGI on Day 14 (SW527 xenograft tumors; Example 5, h10H5 5 mg/kg weekly IP, docetaxel 12.5 mg/kg IV Days 0, 4, 8, B20-4.1 10 mg/kg weekly IP): 54%
body weight losses leading to euthanasia (SW527 xenograft tumors; single-agent docetaxel 12.5 mg/kg, two mice Day 8, two mice Day 12): > 20%

IC50 (read off the curve) [1]: 5 nM
IC50 (read off the curve) [2]: 8 µg/mL
IC50 (read off the curve) [3]: 5 µg/mL
Molecule: IR3, commercial anti-IGF-1R antibody

Molecule: O=c1[nH]cc(F)c(=O)[nH]1 [5-FU, 5-fluorouracil]
% TGI at day 27 [4]: 53%

Molecule: CC(C)C[C@H](NC(=O)[C@H](Cc1ccccc1)NC(=O)c1cnccn1)B(O)O [VELCADE® bortezomib, bortezomib]
effect on h10H5-induced IGF-1R subunit downregulation [5]: more effective in preventing β-subunit downregulation

Molecule: CCOC(=O)[C@H](CCc1ccccc1)N[C@@H](C)C(=O)N1CCC[C@H]1C(=O)O [enalapril]
reduction of the risk of developing cardiac cachexia [6]: 19%

Kd [7]: 0.1 nM
Kd (cynomolgus-monkey IGF-1R): 0.13 nM
B1: chimeric 10H5-IgG (antibody, V domains shown)
VH: QVQLQQPGAELVKPGASVTLSCKASGYTFTRFWIHWVKQRPGQGLEWIGEINPSNGRTNYNENFKNKATLTVDTSSSTAYMQLSSLTSEVSVVYYCARGGRLDQWGQGTT
VL: DIVMTQSQKFMSTSLGDRVSVTCKASQNVGSNVAWYQQKPGQSPEALIYSASYRYSGVPDRFTGSGSGTDFTLTISNVQSEDLAEYFCHQYNNYPYTFGGGTKVEIKR
notes: also called human chimeric 10H5

Kd [8]: 7.3 nM
Kd [9]: 8.6 nM
B2: YW95.6 (Fab, V domains shown)
VH: EVQLVESGGGLVQPGGSLRLSCAASGFTFSSYAMSWVRQAPGKGLEWVSRISPSGGSTYYADSVKGRFTISADTSKNTAYLQMNSLRAEDTAVYYCAREEYYYWGAMDVWGQGTLVTVSS
VL: DIQMTQSPSSLSASVGDRVTITCRASQSISSYLAWYQQKPGKAPKLLIYGASSRASGVPSRFSGSGSGTDFTLTISSLQPEDFATYYCQQYYSSPLTFGQGTKVEIK
